Test results reported in PMC4962041, “Human DNA-Damage-Inducible 2 Protein Is Structurally and Functionally Distinct from Its Yeast Ortholog” (Scientific Reports, 2016).
Values belong to the binder of their own block, whether it stands above or below them. No end group written: not given here.

Columns and labels:
[1] = molecular target: the molecule itself; assay: crystal structure; hDdi2 RVP (212-360), 1.9 Å, PDB 4RGH; hanging drop, 0.2 M ammonium acetate, 0.1 M Bis-Tris pH 5.5, 25% PEG 3350
[2] = molecular target: T1, human ubiquitin (human, UniProt P0CG48 1-76); assay: NMR titration; 15N-labelled hDdi2 UBL (0.05 mM) with a 1- to 10-fold molar excess of UBQ; 50 mM sodium phosphate, pH 7.4, 25 °C; 1:1 model for the Kd; settings: both partners purified
T1 construct: human ubiquitin, the cut product of the ubiquitin precursors; shifts were mapped on PDB 1D3Z; also called UBQ; mono-UBQ; source: 15N- or 15N/13C-labelled where observed by NMR

[3] = molecular target: T1, human ubiquitin; assay: NMR titration; 15N-labelled UBQ (0.1 mM) with unlabelled peptide; 15N/1H-HSQC chemical shift perturbation; 50 mM sodium phosphate, pH 6.0 and pH 7.4, 25 °C; 1:1 model for the Kd; settings: both partners purified
[4] = molecular target: the molecule itself; assay: SAXS; His-tagged HDD-RVP at 5 and 2.5 mg/ml in 25 mM Tris/HCl, 75 mM NaCl, 5% glycerol, 1 mM DTT, pH 7.4; molecular mass from the invariant Vc

Kd [2]: 420 to 1100 µM
B2: hDdi2 UBL domain (residues 1-76) (domain or fragment, human, UniProt Q5TDH0 1-76, looked up)
chain: MLLTVYCVRRDLSEVTFSLQVDADFELHNFRALCELESGIPAAESQIVYAERPLTDNHRSLASYGLKDGDVVILRQ
notes: human DNA-damage-inducible 2 protein (Ddi homolog 2, 399 amino acids), residues 1-76: ubiquitin-like domain; also called N-terminal UBL domain of hDdi2; not shown: His tag, N-terminal, kept

Kd [3]: 2200 to 3200 µM
B3: hDdi2-UIM peptide (peptide)
peptide: EEIADQELAEALQKSAEDAE-NH2
notes: Dissolved in DMSO before use; also called C-terminal hDdi2 UIM peptide; source: synthetic peptide (solid phase, HPLC purified)

The remaining lines, values behind:

B1: hDdi2 RVP domain (residues 212-360) (domain or fragment)
chain: not shown
notes: Gln232 to Pro359 visible in the structure
binding result [1]: binds

B4: hDdi2 HDD-RVP (residues 116-360) (domain or fragment, human, UniProt Q5TDH0 116-360, looked up)
chain: QQSHSSPGEITSSPQGLDNPALLRDMLLANPHELSLLKERNPPLAEALLSGDLEKFSRVLVEQQQDRARREQERIRLFSADPFDLEAQAKIEEDIRQQNIEENMTIAMEEAPESFGQVVMLYINCKVNGHPVKAFVDSGAQMTIMSQACAERCNIMRLVDRRWAGIAKGVGTQKIIGRVHLAQVQIEGDFLPCSFSILEEQPMDMLLGLDMLKRHQCSIDLKKNVLVIGTTGSQTTFLPEGELPE
notes: human DNA-damage-inducible 2 protein (Ddi homolog 2, 399 amino acids), residues 116-360 (lacking both UBL and UIM); Called His-tagged for the SAXS experiment; dimer by SAXS; not shown: His tag, N-terminal, kept
stoichiometry N [4]: 2
